32 variants from the RNAGym collection of RNA variant scans (doi:10.7554/elife.80360) can be followed below.

The chains are these.
B1: HDV Ribozyme (parent)
chain: GGCCGGCAUGGUCCCAGCCUCCUCGCUGGCGCCGGCUGGGCAACAUUCCGAGGGGACCGUCCCCUCGGUAAUGGCGAAUGGGACCCA

The variants in this data set derive from B1. Briefly: self-cleavage, relative activity (ratio to wild type); higher = more cleavage; co-transcriptional.
In the case of GGCCGGCAUGGUCCCAGCCUCCUCGCUGGCGCCGGCUGGGCAACAUUCCGAGGGCACCGUACCCUCGGUAAUGGCGAAUGGGACCCA [G55C C61A], the self-cleavage was found to be 1.06.

As to GGCCGGCAUGGUCCCAGCCUCCUCGCUGGCGCCGGCUGGGCAACAUUCCGAGGGCACCGUCCCCUCGGUAAUGGCGAAUGGGAACCA [G55C C84A], the self-cleavage stood at 1.07. The same measure for GGCCGGCAUGGUCCCAGCCUCCUCGCUGGCGCCGGCUGGGCAACAUUCCGAGGGCAACGUCCCCUCGGUAAUGGCGAAUGGGACCCA [G55C C57A]: 1.06; for GGCCGGCAUGGUCCCAGCCUCCUCGCUGGCGCCGGCUGGGCAACAUUCCGAGGGCACCGUCCCCUCGGUAGUGGCGAAUGGGACCCA [G55C A71G]: 0.912; for GGCCGGCAUGGUCCCAGCCUCCUCGCUGGCGCCGGCUGGGCAACAUUCCGAGGGAACCGUCCCCUCGGAAAUGGCGAAUGGGACCCA [G55A U69A]: 0.857. The same measure for GGCCGGCAUGGUCCCAGCCUCCUCGCUGGCGCCGGCUGGGCAACAUUCCGAGGGCACCGUCCCCUCGGUAAUGGCGAAUGGGACCGA [G55C C86G]: 1.09; for GGCCGGCAUGGUCCCAGCCUCCUCGCUGGCGCCGGCUGGGCAACAUUCCGAGGGAACCGUCCCCUCGGUAAUGGCGCAUGGGACCCA [G55A A77C]: 0.302; for GGCCGGCAUGGUCCCAGCCUCCUCGCUGGCGCCGGCUGGGCAACAUUCCGAGGGCACCGUCCCCUCGGUAAUGGCGCAUGGGACCCA [G55C A77C]: 0.495.

GGCCGGCAUGGUCCCAGCCUCCUCGCUGGCGCCGGCUGGGCAACAUUCCGAGGGCACCGUCCCCUCGGUAAUGGCGGAUGGGACCCA [G55C A77G]: the self-cleavage came to 1.1. The same measure for GGCCGGCAUGGUCCCAGCCUCCUCGCUGGCGCCGGCUGGGCAACAUUCCGAGGGCCCCGUCCCCUCGGUAAUGGCGAAUGGGACCCA [G55C A56C]: 0.969. As to GGCCGGCAUGGUCCCAGCCUCCUCGCUGGCGCCGGCUGGGCAACAUUCCGAGGGCUCCGUCCCCUCGGUAAUGGCGAAUGGGACCCA [G55C A56U], the self-cleavage was found to be 1.01. Under GGCCGGCAUGGUCCCAGCCUCCUCGCUGGCGCCGGCUGGGCAACAUUCCGAGGGAACCGUCCCCUCGGUAAUGGCGAAUGUGACCCA [G55A G81U] stands 0.34; under GGCCGGCAUGGUCCCAGCCUCCUCGCUGGCGCCGGCUGGGCAACAUUCCGAGGGAACCGUCCCCUCGGUAAUGGCGAAUGGGAUCCA [G55A C84U], 0.741; under GGCCGGCAUGGUCCCAGCCUCCUCGCUGGCGCCGGCUGGGCAACAUUCCGAGGUGACCGUCCCCUCGGUAAUGGCGAAUUGGACCCA [G54U G80U], 0.203. In the case of GGCCGGCAUGGUCCCAGCCUCCUCGCUGGCGCCGGCUGGGCAACAUUCCGAGGUGACCGUCCCCUCGGUAAUGGCGAAUAGGACCCA [G54U G80A], the self-cleavage came out at 0.257. Consider GGCCGGCAUGGUCCCAGCCUCCUCGCUGGCGCCGGCUGGGCAACAUUCCGAGGUGACCGUUCCCUCGGUAAUGGCGAAUGGGACCCA [G54U C61U], for which the self-cleavage was 0.895.

With GGCCGGCAUGGUCCCAGCCUCCUCGCUGGCGCCGGCUGGGCAACAUUCCGAGGGCACUGUCCCCUCGGUAAUGGCGAAUGGGACCCA [G55C C58U], the self-cleavage was 1.07.

Consider GGCCGGCAUGGUCCCAGCCUCCUCGCUGGCGCCGGCUGGGCAACAUUCCGAGGGCACAGUCCCCUCGGUAAUGGCGAAUGGGACCCA [G55C C58A], for which the self-cleavage came out at 1.15.

As to GGCCGGCAUGGUCCCAGCCUCCUCGCUGGCGCCGGCUGGGCAACAUUCCGAGGGAACCGUCACCUCGGUAAUGGCGAAUGGGACCCA [G55A C62A], the self-cleavage is 1.01. As for GGCCGGCAUGGUCCCAGCCUCCUCGCUGGCGCCGGCUGGGCAACAUUCCGAGGGAACCGUCUCCUCGGUAAUGGCGAAUGGGACCCA [G55A C62U], the self-cleavage was determined as 1.03. Under GGCCGGCAUGGUCCCAGCCUCCUCGCUGGCGCCGGCUGGGCAACAUUCCGAGGUGACCGUCCCCUCGGCAAUGGCGAAUGGGACCCA [G54U U69C] stands 1.16; under GGCCGGCAUGGUCCCAGCCUCCUCGCUGGCGCCGGCUGGGCAACAUUCCGAGGCGACCGUCCCCUCGGUAAGGGCGAAUGGGACCCA [G54C U72G], 0.431. The same measure for GGCCGGCAUGGUCCCAGCCUCCUCGCUGGCGCCGGCUGGGCAACAUUCCGAGGGAACCGUCCCCUCGGUAUUGGCGAAUGGGACCCA [G55A A71U]: 0.652; for GGCCGGCAUGGUCCCAGCCUCCUCGCUGGCGCCGGCUGGGCAACAUUCCGAGGGAACCGUCCCCUCGGUAGUGGCGAAUGGGACCCA [G55A A71G]: 1.1. Under GGCCGGCAUGGUCCCAGCCUCCUCGCUGGCGCCGGCUGGGCAACAUUCCGAGGGAACCGUCCCCUCGGUACUGGCGAAUGGGACCCA [G55A A71C] stands 0.978. Turning to GGCCGGCAUGGUCCCAGCCUCCUCGCUGGCGCCGGCUGGGCAACAUUCCGAGGUGACCGUCCUCUCGGUAAUGGCGAAUGGGACCCA [G54U C63U], the self-cleavage was 0.892. In the case of GGCCGGCAUGGUCCCAGCCUCCUCGCUGGCGCCGGCUGGGCAACAUUCCGAGGGAACCGUCCCCUCGGUAAUGGCGAAUGGGCCCCA [G55A A83C], the self-cleavage was 0.731. In the case of GGCCGGCAUGGUCCCAGCCUCCUCGCUGGCGCCGGCUGGGCAACAUUCCGAGGGAACCGUCCCCUCGGUAACGGCGAAUGGGACCCA [G55A U72C], the self-cleavage was found to be 1.

On to GGCCGGCAUGGUCCCAGCCUCCUCGCUGGCGCCGGCUGGGCAACAUUCCGAGGGAACCGUCCCCUCGGUAAGGGCGAAUGGGACCCA [G55A U72G], for which the self-cleavage is 0.415. Under GGCCGGCAUGGUCCCAGCCUCCUCGCUGGCGCCGGCUGGGCAACAUUCCGAGGGAACCGUCCCCUCGCUAAUGGCGAAUGGGACCCA [G55A G68C] stands 0.777.

On to GGCCGGCAUGGUCCCAGCCUCCUCGCUGGCGCCGGCUGGGCAACAUUCCGAGGUGACCGUCCCCUCGGUAAUGGCGAAAGGGACCCA [G54U U79A], for which the self-cleavage was found to be 0.982. The same measure for GGCCGGCAUGGUCCCAGCCUCCUCGCUGGCGCCGGCUGGGCAACAUUCCGAGGUGACCGUCCCCUCGGUAAUGGCGAACGGGACCCA [G54U U79C]: 0.513.
